Assay [1] addresses VsCoV-a7 RBD-human IgG Fc fusion (VsCoV-a7 (bat MERSr-CoV from Vespertilio sinensis, Japan)). Description: BLI. A general note: Biolayer interferometry detects binding as a change in optical thickness at a sensor tip.
Assay [2] deals with HsItaly2011 RBD-human IgG Fc fusion (HsItaly2011 (bat MERSr-CoV from Hypsugo savii, Italy)). Description: BLI.

By Kd is commonly meant the free concentration of one partner at which half of the binding sites on the other are occupied at equilibrium, for simple one-to-one binding. Higher therefore signals a looser complex.

The substance “soluble dimeric E.fus ACE2 ectodomain (domain or fragment)” returned a Kd in assay [1] of 816 nM.

In assay [2], “soluble dimeric R.nor ACE2 ectodomain (from UniProt Q5EGZ1 18-740) (domain or fragment)” gave a Kd of 121 nM.
